# Test results as given in publication PMC3197615.
# Key:
# [1] = target: mouse Ephrin A4 on transduced WOP cells (mouse) (UniProt O08542)
# [2] = target: human Ephrin A4 on transduced WOP cells (human) (UniProt P52798)
# [3] = target: rat Ephrin A4 on transduced WOP cells (rat)
# Chain of UniProt O08542 (O08542 26-175): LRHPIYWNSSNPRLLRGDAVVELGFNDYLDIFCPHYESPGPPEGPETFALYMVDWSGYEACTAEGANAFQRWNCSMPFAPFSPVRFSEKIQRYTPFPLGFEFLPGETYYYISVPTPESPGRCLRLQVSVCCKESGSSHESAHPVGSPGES
# Chain of UniProt P52798 (P52798 26-170): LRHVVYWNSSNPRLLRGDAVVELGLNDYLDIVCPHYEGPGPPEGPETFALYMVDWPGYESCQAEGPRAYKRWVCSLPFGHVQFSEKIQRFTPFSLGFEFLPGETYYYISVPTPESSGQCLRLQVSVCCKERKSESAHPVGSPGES
substance,measurement,setting,value
IAPE Env (IAPE D2*) on transfected 293T cells (natural protein),fold increase of the titre of IAPE Env pseudotypes over no-Env pseudotypes on transduced WOP cells (fold increase),[1],16
same,fold increase of the titre of IAPE Env pseudotypes over no-Env pseudotypes on transduced WOP cells (fold increase),[2],231
same,fold increase of the titre of IAPE Env pseudotypes over no-Env pseudotypes on transduced WOP cells (fold increase),[3],16
